The test system of the test is endogenous ZNF410. Briefly: ChIP-seq in HUDEP-2 cells overexpressing HA-tagged ZF constructs. The class given is cell-based, human. Conditions: overexpression in HUDEP-2 cells. The procedure: HUDEP-2 cells at Day 3 of differentiation, primary human CD34+ cells at Day 9 differentiation (similar to the polychromatic stage) and G1E-ER4 cells at 24 hours differentiation were crosslinked with 1% formaldehyde at room temperature for 10 min and quenched by the addition of glycine. ChIP experiments were performed (Hsu, et al. (2017) Mol. Cell., 66:102-116). ZNF410 (Proteintech, Cat. #14529-1-AP), HA (Sigma, Cat. #11815016001) and H3K27ac (Abcam, Cat. #ab4729) antibodies were used for ChIP. ChIP-seq libraries were prepared using TruSeq® ChIP-seq Sample preparation Kit (part #IP-202-1012) according to the manufacturer's instructions. Reads were aligned with Bowtie2 local alignment to allow the mapping of indels (Langmead, et al. (2012) Nat. Methods 9:357-359). […]
Reads were aligned against reference genome hg38 for human and genome mm10 for mouse using Bowtie2 (v2.2.9) and the default parameters. […] Reads aligned to mitochondria, random contigs and ENCODE blacklisted regions were also removed for downstream analysis. Genome coverage files were generated and normalized to 1 million reads per library using bedtools (v2.25.0), and then converted to bigwig format for visualization using the UCSC Toolkit. […] Read density plot and heatmap around selected peaks were generated using Deeptools (version 2.5.7, “computeMatrix” and “plotHeatmap”). […]

B1: ZF1-5: fragment of human ZNF410 comprising five zinc finger domains ZF1-5 (residues 217-366); dominant-negative when overexpressed (protein)
chain: KKLKCTVEGCDRTFVWPAHFKYHLKTHRNDRSFICPAEGCGKSFYVLQRLKVHMRTHNGEKPFMCHESGCGKQFTTAGNLKNHRRIHTGEKPFLCEAQGCGRSFAEYSSLRKHLVVHSGEKPHQCQVCGKTFSQSGSRNVHMRKHHLQLG
modifications: left off: small tags and cut ends
notes: fragment of human ZNF410 comprising five zinc finger domains ZF1-5 (residues 217-366); dominant-negative when overexpressed
On to B1, for which the “interference with endogenous ZNF410 binding” value (ChIP-seq) is recorded as “markedly interfered”. In addition, the chromatin occupancy entry (HA ChIP-seq) was “bound to the CHD4 regulatory regions and to the other ZNF410 targets”.

(Values after patent US20230272390A1, “COMPOSITIONS AND METHODS FOR HEMOGLOBIN PRODUCTION” (THE CHILDREN'S HOSPITAL OF PHILADELPHIA, priority 2020, published 2023).)
